According to paper PMC10053787, “A New Gene SCY3 Homologous to Scygonadin Showing Antibacterial Activity and a Potential Role in the Sperm Acrosome Reaction of Scylla paramamosain” (International Journal of Molecular Sciences, 2023):
pKd: −log10 of the molar value.

Experiments:
[1] = biological target: T1, rSCY5; experiment: biolayer interferometry (Octet); format: binding, Scylla paramamosain; settings: biotinylated protein on Super Streptavidin sensor; progesterone 0.125-4 mM; phosphate-saline buffer pH 7.4, 0.02% Tween 20; room temperature
T1 construct: gene SCY5; biotinylated for BLI

[2] = biological target: T2, rSCY3 (Scylla paramamosain, UniProt A0AAW0UC28); experiment: biolayer interferometry (Octet); format: binding; settings: biotinylated protein on Super Streptavidin sensor; progesterone 0.125-4 mM; phosphate-saline buffer pH 7.4, 0.02% Tween 20; room temperature
T2 construct: gene O3P69_004699; precursor printed as 124 aa; biotinylated for BLI
T2 sequence (A0AAW0UC28 11-110): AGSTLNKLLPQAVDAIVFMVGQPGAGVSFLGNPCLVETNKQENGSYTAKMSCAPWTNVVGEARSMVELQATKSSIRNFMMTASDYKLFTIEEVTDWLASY

[3] = biological target: T3, rSCY4; experiment: biolayer interferometry (Octet); format: binding, Scylla paramamosain; settings: biotinylated protein on Super Streptavidin sensor; progesterone 0.125-4 mM; phosphate-saline buffer pH 7.4, 0.02% Tween 20; room temperature
T3 construct: gene SCY4; biotinylated for BLI

[4] = biological target: Recombinant His-tagged SCY1 (Scylla paramamosain); experiment: SPR; Biacore T200, CM5 chip; rSCY1-4 immobilised (~200 resonance units), blank or rTrx reference cell; rSCY1-5 diluted in PBS and injected (28.8 to 0.45 µM), multiple cycle kinetics, 25 °C, 120-s association and 120-s dissociation
[5] = biological target: Recombinant His-tagged SCY2 (Scylla paramamosain); experiment: as above

Compound	pKd [4]	pKd [5]	pKd [1]	pKd [2]	pKd [3]
CC(=O)[C@H]1CC[C@H]2[C@@H]3CCC4=CC(=O)CC[C@]4(C)[C@H]3CC[C@]12C [progesterone]	–	–	1.60	1.51	2.64
Recombinant His-tagged SCY2 (natural protein)	4.95	–	–	–	–

Second part, led by results:

pKd [4]	pKd [5]	Compound	pKd [1]	pKd [2]	pKd [3]
5.39	6.21	Recombinant His-tagged SCY3 (natural protein)	–	–	–
6.85	6.82	Recombinant Trx-tagged SCY5 (natural protein)	–	–	–
5.16	4.85	Recombinant His-tagged SCY4 (natural protein)	–	–	–
